From the supplement of paper PMC9170038

Legend:
MS2 coat protein [1] = experiment: apparent KD of MS2 coat protein, switch ON state; designed switch direction (-1 OFF switch, 1 ON switch): -1; higher = weaker reporter binding; settings: FMN input: 0 or 200 uM; Eterna round: R93 (includes R88 designs)
Outline: (§1)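 The buffer was 100 mM Tris-HCl pH 7.5 with 80 mM KCl and 4 mM MgCl2, used without or with constant ligand. In it, RNA switches transcribed on-chip from Illumina sequencing clusters were titrated with SNAP-549-labelled MS2 coat protein in twofold steps from 0.7 or 1.5 nM to 3 µM. Apparent KD for each design is the median of its normalised cluster binding-curve fits.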

MS2 coat protein [2] = experiment: apparent KD of MS2 coat protein, switch OFF state (with FMN for OFF switches, without FMN for ON switches); designed switch direction (-1 OFF switch, 1 ON switch): -1; higher = weaker reporter binding; settings: FMN input: 0 or 200 uM; Eterna round: R93 (includes R88 designs)
Outline: as §1

Sequence | apparent KD of MS2 coat protein (MS2 coat protein [1]) | apparent KD of MS2 coat protein (MS2 coat protein [2])
AAGCUGGUAGGAUAUACUAGGGCAACUAAUGAGCCGAUAGGACAUGAGGAUCACCCAUGUAGAAGGGCCAGAAA [Mat - Exclusion 2 - JL mod - D64] | 74.4 nM | 125 nM
AAGGGACAUGAGGAUCACCCAUGUCAGGAUAUCGGAAAAGGAAAAAUAAAAAAGAAGACGAGAAGGGACACCAA [Mat - Exclusion 1 - Eli mod - D77] | 38.4 nM | 32.4 nM
AAGGGACAUGAGGAUCACCCAUGUCAGGAUAUGAUGCGAAUAAAGAAAGAAGAAAGCAUCAGAAGGGACACCAA [58%, Disencluded 3, 4] | 24.4 nM | 33.7 nM
AAGGGACAUGAGGAUCACCCAUGUCAGGAUAUGAUGCGAAUAAAGAAAGAAUAAAGCAUCAGAAGGGACAAAAA [Mat - Exclusion 1 - Eli mod - D63] | 35.6 nM | 55.7 nM
AAGGGACAUGAGGAUCACCCAUGUUAGGAUAUGCAAACAACAAACAACAAACAACAAAGCAGAAGGGACAAAAA [63%, Olong, 6] | 30.5 nM | 28.8 nM
AAGUAACAUGAGGAUCACCCAUGUGAGGAUAUGAUUUAAGUUGUAAAAGUAAUAAAGGUCAGAAGGUAUGUGAA [Exclusion 1.2] | 30.9 nM | 34.7 nM
AAGUAGGUAGGAUAUGCAUAGAUAUAUAUUCAUGUGGAACUACAUGAGGAUCACCCAUGUAGAAGGACCUAAUA [AJ 42] | 18.1 nM | 17.1 nM
AAUAAACAUGAGGAUCACCCAUGUCAGGAUAUCCUAAAUAAAAAAAUAUAAAGAAGAAGGAGAAGGGACUAAAA [Mystem Exclusion 1] | 47.2 nM | 53.5 nM
AAUAAACAUGAGGAUCACCCAUGUGAGGAUAUGGUAUAAUUAGGACAGUAAUGAUAAACCAGAAGGCACAAAUA [JR_Exc001_Sub1103] | 35.6 nM | 42.6 nM
AAUAACAGAGGAUAUACGAAAAUAAGCGGAAACGCAAAGGGACAUGAGGAUCACCCAUGUAGAAGGCUGGAUAA [Tetraloop... 61% 2] | 28.3 nM | 148 nM
AAUAACUGAGGAUAUACUAAAGAAAUGAAAAGAAAUAAAGAACAUGAGGAUCACCCAUGUAGAAGGCAGAAUAA [Nuya] | 32 nM | 30.6 nM
AAUAAGACAGGAUAUACGAAAAUAAGCGGAAACGCAAAGGGACAUGAGGAUCACCCAUGUAGAAGGGUCGAUAA [Tetraloop... 61% 3] | 80.2 nM | 190 nM
AAUAAGAGAGGAUAUACUAAAGAAAUGAAAAGAAAUAAAGAACAUGAGGAUCACCCAUGUAGAAGGCUCAAUAA [Bebnum] | 24.4 nM | 24.6 nM
AAUAUCGGAGGAUAUGCAUAGAUAAAGAAUUAUGUUAAAACACAUGAGGAUCACCCAUGUAGAAGGCCGAUAAA [AJ 8] | 22.2 nM | 88 nM
AAUUCACAUGAGGAUCACCCAUGUAAGGAUAUCGAAAUAAAACUAAACAAAAAACAAACGAGAAGGUACAAAAA [Exclusion 1 design 6] | 25 nM | 23.3 nM
ACAAACCGAGGAUAUACAUGAGGAUCACCCAUGUAGACGAACACAUGCGUCAUCACCAGUAGAAGGUGGAAAAC [Telaandi] | 29.9 nM | 26.3 nM
ACAAGAUCAGGAUAUACAUGAGGAUCACCCAUGUAUAAAAAAAAAGGGCCUUCUACAUGUAGAAGGGAUCUUGU [EX3 290: Random 26] | 14.3 nM | 19.9 nM
ACAUGACAUGAGGAUCACCCAUGUGAGGAUAUGCGAAAAAAAAAAAAAAAAAAAAUUGGCAGAAGGCACAAAAU [Jean Baudrillard] | 202 nM | 153 nM
ACCGAUCGAGGAUAUACAUGAGGAUCACCCAUGUAAAGCAGAAGAAAGGCCUCAGGAUGUAGAAGGCGACGCAA [JR_Exc003_Sub405] | 20.1 nM | 28.3 nM
ACGUAGUCAGGAUAUACGAACAUGUCAAAAGACGUGAAGGGACAUGAGGAUCACCCAUGUAGAAGGGACUACGA [Mat - Exclusion 2 - JL mod - D5] | 43.1 nM | 129 nM
ACUAAUGAAGGAUAUACAAACAACAAACACUCAACACACACACAUGAGGAUCACCCAUGUAGAAGGUCAAACAU [JR_Exc002_Sub1204] | 19.2 nM | 18.2 nM
AGAAAACAUGAGGAUCACCCAUGUGAGGAUAUCGAUGUCCAAGACCUGGUGCGGGACUCGAGAAGGCACUGGGA [salish99-ex1-92] | 41.4 nM | 44.8 nM
AGAAAACAUGAGGAUCACCCAUGUGAGGAUAUGCGAAAAGAAAGAAAAUAAAAUAAAAGCAGAAGGUACAAAUA | 29.9 nM | 31.3 nM

Sequence | apparent KD of MS2 coat protein (MS2 coat protein [1]) | apparent KD of MS2 coat protein (MS2 coat protein [2])
AGAAACCUAGGAUAUACAUGAGGAUCACCCAUGUAAAGAAAGAGGAGAGCCACAAGAAGUAGAAGGAGGAAGAA [JR_Exc003_Sub006] | 22.7 nM | 34.9 nM
AGAAAGUCAGGAUAUACAGAUAAAAAAACGAAAAAAAAUCUGUAGAAGGGACAUGAGGAUCACCCAUGUAAAGA [Mat - Exclusion 4 - Mayanna - D102] | 49.4 nM | 39.2 nM
AGAAAGUCAGGAUAUACGAAUAAGAAUAAAGACGAGAACGGACAUGAGGAUCACCCAUGUAGAAGGGACAAGAA [Diamond 16] | 51.6 nM | 21.8 nM
AGAAAGUCAGGAUAUAUAGGAAAAAUAAAAAAAAUAAAACUAUAGAAGGGACAUGAGGAUCACCCAUGUUAAGA [Mat - Exclusion 4 - Mayanna - D133] | 34 nM | 17.8 nM
AGAAAGUCAGGAUAUGCAGACAAAGCAAAAAAGCAAUGUCUGCAGAAGGGACAUGAGGAUCACCCAUGUAAAGA [Mat - Exclusion 4 - Mayanna - D117] | 50.3 nM | 47.5 nM
AGAAAGUGAGGAUAUACAUGAGGAUCACCCAUGUAGAACGAGAGUUAUAAAAAUGGAAGUAGAAGGCACAAAAG [Meechl MS2 Ex3] | 28.3 nM | 32.8 nM
AGAAAUACAGGAUAUACAUGGGAAAAAAAAAAAAAAAUUCUACAUGAGGAUCACCCAUGUAGAAGGGUAUUUCA [Ex2 Design 170: Random 1] | 48.2 nM | 32 nM
AGAUGACAAGGAUAUACUAGGGAUGCUAGUCGAGAAGAAGAACAUGAGGAUCACCCAUGUAGAAGGUGUAAGAA [JR_Exc002_Sub1703] | 35.4 nM | 33.8 nM
AGCAAACAUGAGGAUCACCCAUGUUAGGAUAUGAACGAAAAUAAAUAAAAAUAAAAGUUCAGAAGGGACGAGCA [66%, Wbt, 28] | 28.1 nM | 37.7 nM
AGCAAGAGAGGAUAUACAUAGGAAAAAAAAGUCAGAUCCCUACAUGAGGAUCACCCAUGUAGAAGGCUCUGGCA [Ex2 Design 154: Sub-opt 18] | 15.1 nM | 12.2 nM
AGCAAGUAAGGAUAUGCAAAGUCAGGACACACACUGACGAAGCAGAAGGUACAUGAGGAUCACCCAUGUAAGCA [Mat - Exaclusion 4 - Eli mod - D61] | 25.6 nM | 18 nM
AGCAAGUCAGGAUAUACGAACAAGACAAAAGACGUGAAGGGACAUGAGGAUCACCCAUGUAGAAGGGACUAGCA [74%, Web mod - With 3 less U's] | 59.8 nM | 61.7 nM
AGCAAGUUAGGAUAUGCAAAGUCAGGACACACACUGACGAAGCAGAAGGAACAUGAGGAUCACCCAUGUAAGCA [Mat - Exaclusion 4 - Eli mod - D63] | 23.5 nM | 17.1 nM
AGCACGUCAGGAUAUACGAAAAAAAAGGGUAAAAAAAAGGGACAUGAGGAUCACCCAUGUAGAAGGGACAAGCA [Diamond 93] | 147 nM | 172 nM
AGCACGUCAGGAUAUACGAACAAAACGGGAGAACUAAAGGGACAUGAGGAUCACCCAUGUAGAAGGGACAAGCA [Diamond 91] | 85.6 nM | 91.1 nM
AGCAGUACAGGAUAUACAUGAGGAUCACCCAUGUGAAAAGAAAGUGGCGUACCACAAAGUAGAAGGGUACUGCA [Mat - Exclusion 3 - JL mod - D33] | 27.9 nM | 180 nM
AGCUAGUCAGGAUAUACAAAAAUGAUAGAAGACGUAAGGGAACAUGAGGAUCACCCAUGUAGAAGGGACUAGCA [Diamond 44] | 41 nM | 129 nM
AGCUAGUCAGGAUAUACAAAAAUGCUAGAAGACGUAAGGGAACAUGAGGAUCACCCAUGUAGAAGGGACUAGCA [Diamond 45] | 37.2 nM | 58.3 nM
AGCUAGUCAGGAUAUACAUGAAAAAAAAAAAAAAAAAAAAAACAUGAGGAUCACCCAUGUAGAAGGGACUAGCA [Starry Esclusion 2 (jandersonlee round 1 mod)] | 95.6 nM | 98.9 nM
AGCUAGUCAGGAUAUACGAAAAUGUCAGAAGCUGAGAAGGGACAUGAGGAUCACCCAUGUAGAAGGGACUAGCA [Diamond 37] | 70.2 nM | 316 nM
AGCUAGUCAGGAUAUACGAACAUGUAAAAAGAAGUGAAGGGACAUGAGGAUCACCCAUGUAGAAGGGACUAGAA [74%, Web mod - With 3 less C's] | 55.5 nM | 109 nM
AGCUAGUCAGGAUAUACGAACAUGUCAAAAGACGUGAAGGGACAUGAGGAUCACCCAUGUAGAAGGGACUAGCG [salish99-ex2-14] | 36 nM | 103 nM
